Measurements from patent US20260248897.

Assays:
[1] = molecular target: RBD of SARS-CoV-2 (B lineage) (UniProt P0DTC2)
[2] = molecular target: RBD of SARS-CoV-2, on infectious virus (UniProt P0DTC2)
[3] = molecular target: RBD of hCoV-229E (UniProt P15423)

| Substance | disulfide bond cleavage activity (remaining rate of native RBD; maleimide-PEG 2k, SDS-PAGE) [1] | antiviral activity (number of viral copies of SARS-CoV-2 in supernatant of infected airway organoids) [2] | disulfide bond cleavage activity (remaining rate of native RBD; maleimide-PEG 2k, SDS-PAGE) [3] |
| --- | --- | --- | --- |
| gene recombinant of human ERp46 (thioredoxin domain containing 5) | The order of the disulfide bond cleavage activity of the RBD from highest to lowest was PDI, ERp46, P5, ERp72, and ERp57. | Both PDI and ERp46 inhibited the SARS-CoV-2 infection in a concentration-dependent manner. | The order of the disulfide bond cleavage activity of the RBD of hCoV-229E from highest to lowest was PDI, ERp46, P5, Erp57, and ERp72. |
| gene recombinant of human PDI (protein disulfide isomerase) | The order of the disulfide bond cleavage activity of the RBD from highest to lowest was PDI, ERp46, P5, ERp72, and ERp57. Among these, the disulfide bond cleavage activity of PDI was significantly high. | Both PDI and ERp46 inhibited the SARS-CoV-2 infection in a concentration-dependent manner. | The order of the disulfide bond cleavage activity of the RBD of hCoV-229E from highest to lowest was PDI, ERp46, P5, Erp57, and ERp72. Among these, the disulfide bond cleavage activity of PDI was significantly high. |
